Experimental findings from PMC5458677 are described below.

This assay addresses His-tagged full-length Anisakis simplex macrophage migration inhibitory factor (As-MIF, 1-121) (Anisakis simplex). The assay is described as follows: SPR. Background: Surface plasmon resonance follows binding to a sensor surface in real time, without labels.

The term Kd denotes a measure of binding affinity in units of concentration. A lower Kd goes with a tighter complex. Consider “His-tagged human JAB1 (1-257) (from UniProt Q92905 1-257) (domain or fragment)”, for which the Kd stood at 0.0166 µM.
